Source: paper doi:10.1101/2025.09.11.675134, “Biodistribution-Driven Discovery Identifies a Glycosidase-Cleavable Linker to Reprogram Radiotheranostics” (bioRxiv, 2025)
Where two headings read alike, the source gives them in different places.

What was measured:
[1] = system: AR42J xenografts; assay: PET/CT quantification of 86Y-labeled variants in AR42J xenograft mice; type: in vivo; settings: PET SUVmax, 24 h post-injection
Description: For studies involving three variants (DOTA -TATE, DOTA-MVK(ε)-TATE, and DOTA-β-Gal-TATE), AR42J cells (5 × 10^6 cells per mouse) were subcutaneously inoculated into the right shoulder of the mice. Tumors were allowed to grow for 3 weeks, reaching a volume of 100 –200 mm³ before being used in subsequent experiments. For biodistribution or PET imaging studies, mice bearing subcutaneous AR42J tumors were administered 1.4 – 1.8 MBq (1 μg) of 111In-labeled DOTA-TATE variants or 2.7 – 4.9 MBq (1 μg) of 86Y-labeled DOTA-TATE variants via […]
tail vein injection. […]
PET imaging to assess the uptake of three 86Y-labeled DOTA-TATE variants (2.7 – 4.9 MBq, 1 μg) in the kidney and tumor was performed at 1, 4, and 24 hours post-injection (n = 3 per cohort) in mice bearing AR42J tumors using the MRS*PET/CT 120 scanner (MR Solutions, Guildford, UK). PET/CT data acquisition was managed using Preclinical Scan software (version 4.2.4.0, MR Solutions). Mice were anesthetized with 2% isoflurane, and static PET sc ans were acquired over 10 min. CT scans were obtained for attenuation correction and anatomical co-registration.
PET data were reconstructed using three-dimensional ordered-subsets expectation maximization, and were subsequently normalized, decay - and dead-time–corrected prior to analysis. PET/CT images were analyzed using MIM software (version 7.2.7, MIM Software Inc., Beachwood, OH, USA), and the quantitative evaluation of the maximum standardized uptake (SUVmax) and the average standardized uptake values (SUVmean) in the kidney and tumor were also performed. […]

[2] = Urine metabolite analysis by radio-HPLC; type: in vivo; settings: normal non-tumor-bearing athymic nu/nu mice, i.v. 13–15 MBq in 200 μL PBS (4 μg), urine 1 h post-injection, n = 3
Description: To elucidate the role of linker cleavage in reducing renal retention, we performed metabolite analysis of ^86Y-labeled DOTA-TATE derivatives in normal, non-tumor-bearing athymic nu/nu mice. […] These samples were analyzed by radio-HPLC alongside synthetic standards corresponding to the expected cleavage products: ^86Y-DOTA-G-M-OH and ^86Y-DOTA-NHMe (Fig. 4A).

[3] = system: β-galactosidase; settings: β-galactosidase 10 KU/mL in PBS (10 mM, pH 7.2), 37 °C; for Cleaved product 86Y-DOTA-NHMe, % of the total activity: mixed 1:1 (v/v), radio-TLC
Description: To further confirm β-galactosidase-specific cleavage, ^86Y-DOTA-β-Gal-TATE was incubated in vitro with β-galactosidase and analyzed by radio-TLC over time.
To analyze radioactive urine metabolites, ^86Y-DOTA-MVK(ε)-TATE or ^86Y-DOTA-β-Gal-TATE (13 – 15 MBq in 200 μL PBS, 4 μg) was intravenously injected into normal, non-tumor-bearing athymic nu/nu mice (n = 3). As reference controls, standard metabolites of ^86Y-DOTA-MVK(ε)-TATE (^86Y-DOTA-G-M-OH) and ^86Y-DOTA-β-Gal-TATE (^86Y-DOTA-NHMe) were also prepared and administered to normal athymic, non-tumor-bearing nu/nu mice. Urine samples were collected 1 hour post-injection, centrifuged at 10,000 rpm, and subsequently analyzed by radio-HPLC for each ^86Y-labeled DOTA-TATE variant. The radio-HPLC peaks were compared with those of the standard metabolites (^86Y-DOTA-G-M-OH or ^86Y-DOTA-NHMe). Radio-HPLC analysis was conducted under the same conditions as those used for analyzing the radiolabeled the DOTA-TATE variants, using an Agilent 1260 Infinity II system with a TSK-gel Octadecyl-4PW column and a gradient elution method. For in vitro enzyme-mediated cleavage, β-galactosidase was prepared in PBS (10 mM, pH 7.2) at 10 KU/mL. ^86Y-DOTA-β-Gal-TATE (13–15 MBq in 200 μL PBS) was mixed 1:1 (v/v) with β-galactosidase solution and incubated at 37 °C. Aliquots were taken at 1, 4, and 24 h, centrifuged at 10,000 rpm, and the supernatants were analyzed by radio-TLC. The 24 h sample was further examined by radio-HPLC to confirm metabolite identity.

[4] = system: AR42J xenografts; assay: Targeted alpha particle therapy, one-cycle regimen; type: in vivo, athymic nu/nu mice
Description: Building on the favorable dosimetry profiles observed for the cleavable linker-modified constructs, we next evaluated their therapeutic efficacy in vivo following one cycle of ^225Ac-labeled variants (Fig. 5C; Fig. S19A). […] Tumor growth, overall survival, and body weight were monitored over 95 days.
Mice received either a one-cycle regimen (n=8 per cohort) or a two-cycle regimen (n=6 per cohort) at an 8-day interval. Tumor volume and body weight were measured twice weekly after treatment using a digital caliper. Tumor volume was calculated using the formula V (mm^3) = (l × w^2)/2, where l (length) was the larger of the two perpendicular tumor axes, and w (width) was the smaller axis. Survival was monitored, with the endpoint defined as a tumor volume exceeding 2000 mm^3, a weight loss greater than 20% from baseline, or signs of distress in the mice.

[5] = Blood chemistry and complete blood count during therapy; type: in vivo, athymic nu/nu mice; settings: one cycle of 225Ac treatment (148 kBq), blood at 0, 10 and 31 days, VetScan HM5
From the text: Blood samples were collected at multiple timepoints during therapy studies and analyzed to assess toxicity (Fig. S25). Biochemical parameters of liver (e.g. alanine aminotransferase, bilirubin) and renal (blood urea nitrogen, and creatinine) toxicity remained mostly within normal limits across all groups. […] These findings further support the favorable tolerability profiles of the cleavable linker constructs.
Additionally, a basic metabolic panel (BMP) and complete blood count (CBC) analysis were performed to monitor hematological parameters and potential treatment-related toxicity. For the one-cycle therapy cohort, blood was collected at 0-, 10-, and 31-days post-treatment, whereas for the two-cycle therapy cohort, blood was collected at 10 days, 3 months, and 6 months post-treatment. Samples were obtained retro-orbitally into potassium EDTA-coated tubes and analyzed using the Vetscan VS2 (Abaxis, Union City, CA, USA) and VetScan HM5 hematology analyzer (Abaxis). Although these instruments provide species-specific reference intervals, manufacturer-supplied ranges may not fully reflect our study cohort. […] The following parameters were assessed and compared: alanine transaminase (ALT, U/L), total bilirubin (TBIL, μmol/L), creatinine (CRE, μmol/L), blood urea nitrogen (BUN, mmol/L), total white blood cell count (WBC, 10^9/L), hemoglobin (HGB, g/dL), and platelets (PLT, 10^9/L).

Row | SMILES | T/K ratio higher than that of 86Y-DOTA-MVK(ε)-TATE [1] | T/K ratio higher than that of 86Y-DOTA-TATE [1] | Share of total urinary radioactivity corresponding to the cleaved metabolite (86Y-DOTA-G-M-OH or 86Y-DOTA-NHMe) [2] [%] | Compound converted to 86Y-DOTA-NHMe ([3]; 24 h sample, radio-HPLC (peak at 2.6 min)) [%] | Cleaved product 86Y-DOTA-NHMe, % of the total activity ([3]; 1 h) [%] | Cleaved product 86Y-DOTA-NHMe, % of the total activity ([3]; 4 h) [%] | Cleaved product 86Y-DOTA-NHMe, % of the total activity ([3]; 24 h) [%] | Median survival time ([4]; 148 kBq (1 μg) per mouse, AR42J xenograft-bearing mice, n = 8, Kaplan–Meier, vehicle 16 days) [days] | Tumor growth ([4]; 148 kBq per mouse, monitored over 95 days, n = 8) | Body weight ([4]; 148 kBq per mouse, n = 8) | White blood cell counts [5]
1 | C[C@@H](O)[C@H](NC(=O)[C@@H]1CSSC[C@H](NC(=O)[C@@H](Cc2ccccc2)NC(=O)CCCC(=O)Nc2cc(COC(=O)N(C)CCNC(=O)CN3CCN(CC(=O)O)CCN(CC(=O)O)CCN(CC(=O)O)CC3)ccc2O[C@@H]2O[C@H](CO)[C@H](O)[C@H](O)[C@H]2O)C(=O)N[C@@H](Cc2ccc(O)cc2)C(=O)N[C@H](Cc2c[nH]c3ccccc23)C(=O)N[C@@H](CCCCN)C(=O)N[C@@H]([C@@H](C)O)C(=O)N1)C(=O)O [^86Y-DOTA-β-Gal-TATE, metal not drawn] | approximately 2.7 fold | over 10 fold | 47.4 | 90.7 | 24.6 | 50.2 | 88.8 |  |  |  | 
2 | C[C@@H](O)[C@H](NC(=O)[C@@H]1CSSC[C@H](NC(=O)[C@@H](Cc2ccccc2)NC(=O)CCCC(=O)Nc2cc(COC(=O)N(C)CCNC(=O)CN3CCN(CC(=O)O)CCN(CC(=O)O)CCN(CC(=O)O)CC3)ccc2O[C@@H]2O[C@H](CO)[C@H](O)[C@H](O)[C@H]2O)C(=O)N[C@@H](Cc2ccc(O)cc2)C(=O)N[C@H](Cc2c[nH]c3ccccc23)C(=O)N[C@@H](CCCCN)C(=O)N[C@@H]([C@@H](C)O)C(=O)N1)C(=O)O [^225Ac-DOTA-β-Gal-TATE, metal not drawn] |  |  |  |  |  |  |  | 86 | most sustained inhibition of tumor growth, with minimal progression observed up to day 35 post-treatment | gradually regained weight by day 14, maintaining stable body weights for the remainder of the study | transient decrease following one cycle of ^225Ac treatment that recovered at later time points
